Like-named read-outs stand apart in the source and are kept apart here.
Tested on: SARS-CoV-2
Conditions: for All cause death or hospitalization for COVID-19: Bayes prob, Dichotomous / All cause death or hospitalization for COVID-19: Bayes prob, TTE / All cause death or hospitalization for COVID-19: HR (95% CrI), TTE / All cause death or hospitalization for COVID-19: RR (95% CrI), Dichotomous / ER visit ≥6 h or hospitalization due to COVID-19: Bayes prob, Dichotomous / ER visit ≥6 h or hospitalization due to COVID-19: Bayes prob, TTE / ER visit ≥6 h or hospitalization due to COVID-19: HR (95% CrI), TTE / ER visit ≥6 h or hospitalization due to COVID-19: RR (95% CrI), Dichotomous: vs placebo
[1] = ITT preliminary, n=916 vs placebo 1020, 28 days
[2] = ITT preliminary, n=916 vs placebo 1020, 28 days, listed as Interferon lambda
[3] = ITT preliminary, n=916 vs placebo 1020, 28 days, listed as Lambda
[4] = Treated within 3 days of symptom onset, n=539 vs placebo 586
[5] = Treated within 5 days of symptom onset, n=800 vs placebo 879

B1: pegylated interferon lambda-1a (protein)
chain: MKPTTTGKGCHIGRFKSLSPQELASFKKARDALEESLKLKNWSCSSPVFPGNWDLRLLQVRERPVALEAELALTLKVLEAAAGPALEDVLDQPLHTLHHILSQLQACIQPQPTAGPRPRGRLHHWLHRLQEAPKKESAGCLEASVTFNLFRLLTRDLKYVADGNLSLRTSTHPEST
modifications: PEG
notes: 180 mcg subcutaneous injection
[1]
  Death or hospitalization due to COVID-19, % of patients: (2.4%)
  Death or hospitalization due to COVID-19, RR (95% CrI) vs placebo: 0.61 (0.36, 0.99)
  Hospitalization for COVID-19, RR (95% CrI) vs placebo: 0.58 (0.34, 0.95)
  Hospitalization or ER (any duration) for COVID-19, % of patients: (10.6%)
  Hospitalization or ER (any duration) for COVID-19, Pr (Superiority): 0.984
  Hospitalization or ER (any duration) for COVID-19, RR (95% CrI) vs placebo: 0.77 (0.60, 0.98)
  Hospitalization or ER ≥6 h for COVID-19, Pr (Superiority): 0.999
  Hospitalization or ER ≥6 h for COVID-19, RR (95% CrI) vs placebo: 0.50 (0.31, 0.77)
[2]
  Death due to COVID-19, % of patients: (0.1%)
  Hospitalization for COVID-19, % of patients: (2.3%)
  Hospitalization or ER ≥6 h for COVID-19, % of patients: (2.7%)
[3]
  Death due to COVID-19, % of patients: 0.1%
  Hospitalization for COVID-19, % of patients: 2.3%
  Hospitalization or ER ≥6 h for COVID-19, % of patients: 2.7%
Omicron and not vaccinated
  All cause death or hospitalization for COVID-19: events/patients: 0/9
  ER visit ≥6 h or hospitalization due to COVID-19: events/patients: 0/9
  All cause death or hospitalization for COVID-19: Bayes prob, Dichotomous: 0.532
  All cause death or hospitalization for COVID-19: Bayes prob, TTE: 0.912
  All cause death or hospitalization for COVID-19: HR (95% CrI), TTE: 0.00 (0.00, 4.43)
  All cause death or hospitalization for COVID-19: RR (95% CrI), Dichotomous: 0.90 (0.03, 10.04)
  ER visit ≥6 h or hospitalization due to COVID-19: Bayes prob, Dichotomous: 0.532
  ER visit ≥6 h or hospitalization due to COVID-19: Bayes prob, TTE: 0.912
  ER visit ≥6 h or hospitalization due to COVID-19: HR (95% CrI), TTE: 0.00 (0.00, 4.43)
  ER visit ≥6 h or hospitalization due to COVID-19: RR (95% CrI), Dichotomous: 0.90 (0.03, 10.04)
Omicron and onset ≤3 days
  All cause death or hospitalization for COVID-19: events/patients: 0/281
  ER visit ≥6 h or hospitalization due to COVID-19: events/patients: 0/281
  All cause death or hospitalization for COVID-19: Bayes prob, Dichotomous: 0.977
  All cause death or hospitalization for COVID-19: Bayes prob, TTE: 0.9982
  All cause death or hospitalization for COVID-19: HR (95% CrI), TTE: 0.00 (0.00, 0.35)
  All cause death or hospitalization for COVID-19: RR (95% CrI), Dichotomous: 0.14 (0.00, 0.96)
  ER visit ≥6 h or hospitalization due to COVID-19: Bayes prob, Dichotomous: 0.998
  ER visit ≥6 h or hospitalization due to COVID-19: Bayes prob, TTE: 0.9999
  ER visit ≥6 h or hospitalization due to COVID-19: HR (95% CrI), TTE: 0.00 (0.00, 0.17)
  ER visit ≥6 h or hospitalization due to COVID-19: RR (95% CrI), Dichotomous: 0.08 (0.00, 0.50)
Omicron and vaccinated
  All cause death or hospitalization for COVID-19: events/patients: 2/428
  ER visit ≥6 h or hospitalization due to COVID-19: events/patients: 2/428
  All cause death or hospitalization for COVID-19: Bayes prob, Dichotomous: 0.876
  All cause death or hospitalization for COVID-19: Bayes prob, TTE: 0.911
  All cause death or hospitalization for COVID-19: HR (95% CrI), TTE: 0.34 (0.05, 1.52)
  All cause death or hospitalization for COVID-19: RR (95% CrI), Dichotomous: 0.46 (0.09, 1.69)
  ER visit ≥6 h or hospitalization due to COVID-19: Bayes prob, Dichotomous: 0.999
  ER visit ≥6 h or hospitalization due to COVID-19: Bayes prob, TTE: 0.9998
  ER visit ≥6 h or hospitalization due to COVID-19: HR (95% CrI), TTE: 0.11 (0.02, 0.42)
  ER visit ≥6 h or hospitalization due to COVID-19: RR (95% CrI), Dichotomous: 0.17 (0.04, 0.53)
Omicron subgroup
  All cause death or hospitalization for COVID-19: events/patients: 2/439
  ER visit ≥6 h or hospitalization due to COVID-19: events/patients: 2/439
  All cause death or hospitalization for COVID-19: Bayes prob, Dichotomous: 0.914
  All cause death or hospitalization for COVID-19: Bayes prob, TTE: 0.9477
  All cause death or hospitalization for COVID-19: HR (95% CrI), TTE: 0.29 (0.04, 1.27)
  All cause death or hospitalization for COVID-19: RR (95% CrI), Dichotomous: 0.41 (0.08, 1.45)
  ER visit ≥6 h or hospitalization due to COVID-19: Bayes prob, Dichotomous: >0.9999
  ER visit ≥6 h or hospitalization due to COVID-19: Bayes prob, TTE: 0.9999
  ER visit ≥6 h or hospitalization due to COVID-19: HR (95% CrI), TTE: 0.11 (0.02, 0.43)
  ER visit ≥6 h or hospitalization due to COVID-19: RR (95% CrI), Dichotomous: 0.17 (0.04, 0.50)
Phase 3 study, single s.c. dose within 7 days of symptom onset
  risk reduction, hospitalization alone: 44%
Table 11 Model 1: Treatment alone
  Log odds (95% CrI) vs Placebo, Bayesian logistic regression: −0.69 (−1.17, −0.26)
Table 11 Model 2: Unvaccinated as an effect-modifier
  Log odds vs Placebo, Bayesian logistic regression: −0.67
Table 12 Model 1: Treatment alone
  OR (95% CrI) vs Placebo, Bayesian logistic regression: 0.50 (0.31, 0.77)
Table 12 Model 2: Treatment + Vaccination
  OR (95% CrI) vs Placebo, Bayesian logistic regression: 0.49 (0.29, 0.78)
Table 12 Model 3: Treatment + Vaccination + Early onset (≤3 days)
  OR (95% CrI) vs Placebo, Bayesian logistic regression: 0.48 (0.29, 0.77)
Table 12 Model 4: Treatment + Vaccination + Early onset (≤5 days)
  OR (95% CrI) vs Placebo, Bayesian logistic regression: 0.48 (0.29, 0.77)
[4]
  Death due to COVID-19, % of patients: (0%)
  Death due to COVID-19, RR (95% CrI) vs placebo: 0.21 (0.01, 1.66)
  Death or hospitalization due to COVID-19, % of patients: (1.5%)
  Death or hospitalization due to COVID-19, RR (95% CrI) vs placebo: 0.40 (0.18, 0.83)
  Hospitalization for COVID-19, % of patients: (1.5%)
  Hospitalization for COVID-19, RR (95% CrI) vs placebo: 0.40 (0.18, 0.82)
  Hospitalization or ER (any duration) for COVID-19, % of patients: (10%)
  Hospitalization or ER (any duration) for COVID-19, Pr (Superiority): 0.964
  Hospitalization or ER (any duration) for COVID-19, RR (95% CrI) vs placebo: 0.75 (0.54, 1.03)
  Hospitalization or ER ≥6 h for COVID-19, % of patients: (2%)
  Hospitalization or ER ≥6 h for COVID-19, Pr (Superiority): 0.996
  Hospitalization or ER ≥6 h for COVID-19, RR (95% CrI) vs placebo: 0.43 (0.21, 0.81)
[5]
  Death due to COVID-19, % of patients: (0.1%)
  Death due to COVID-19, RR (95% CrI) vs placebo: 0.39 (0.05, 1.96)
  Death or hospitalization due to COVID-19, % of patients: (2.2%)
  Death or hospitalization due to COVID-19, RR (95% CrI) vs placebo: 0.56 (0.32, 0.96)
  Hospitalization for COVID-19, % of patients: (2.1%)
  Hospitalization for COVID-19, RR (95% CrI) vs placebo: 0.53 (0.29, 0.91)
  Hospitalization or ER (any duration) for COVID-19, % of patients: (10.2%)
  Hospitalization or ER (any duration) for COVID-19, Pr (Superiority): 0.992
